These results are taken from the supplement of paper PMC11246515.

± gives the standard deviation of the averaged measurements.

The data set in a line: total protein half-life in vivo (active degradation + dilution); higher = more stable protein.
Setting [1] is: E. coli NCM3722 delta-clpP delta-lon delta-hslV, growth: N-lim chemostat, doubling time 6 h.
Where [2] appears, read: E. coli NCM3722 delta-clpP, growth: N-lim chemostat, doubling time 6 h.
The mark [3] stands for this setting: E. coli NCM3722 delta-hslV, growth: N-lim chemostat, doubling time 6 h.
Where [4] appears, read: E. coli NCM3722 delta-lon, growth: N-lim chemostat, doubling time 6 h.
Where [5] appears, read: E. coli NCM3722 delta-smpB, growth: N-lim chemostat, doubling time 6 h.
Where [6] appears, read: wild type E. coli NCM3722, growth: C-lim chemostat, doubling time 3 h.
The mark [7] stands for this setting: wild type E. coli NCM3722, growth: C-lim chemostat, doubling time 6 h.
[8] abbreviates: wild type E. coli NCM3722, growth: C-lim chemostat, doubling time 12 h.
[9] abbreviates: wild type E. coli NCM3722, growth: N-lim chemostat, doubling time 6 h.
Where [10] appears, read: wild type E. coli NCM3722, growth: N-lim chemostat, doubling time 12 h.
[11] abbreviates: wild type E. coli NCM3722, growth: P-lim chemostat, doubling time 6 h.
[12] abbreviates: wild type E. coli NCM3722, growth: P-lim chemostat, doubling time 12 h.

For the sequence “MHSLQRKVLRTICPDQKGLIARITNICYKHELNIVQNNEFVDHRTGRFFMRTELEGIFNDSTLLADLDSALPEGSVRELNPAGRRRIVILVTKEAHCLGDLLMKANYGGLDVEIAAVIGNHDTLRSLVERFDIPFELVSHEGLTRNEHDQKMADAIDAYQPDYVVLAKYMRVLTPEFVARFPNKIINIHHSFLPAFIGARPYHQAYERGVKIIGATAHYVNDNLDEGPIIMQDVIHVDHTYTAEDMMRAGRDVEKNVLSRALYKVLAQRVFVYGNRTIIL”, the “total protein half-life in vivo” value was 5.61 ± 0.48 h under setting [1]; 5.19 ± 0.2 h under setting [2]; 4.71 ± 0.23 h under setting [3]; 5.71 ± 1.4 h under setting [4]; 4.94 ± 0.19 h under setting [5]; 2.78 ± 0.4 h under setting [6]. Moreover, the “total protein half-life in vivo” value under setting [7] was determined as 6.27 ± 1.3 h; the “total protein half-life in vivo” value under setting [8] was 10.5 ± 0.78 h; the “total protein half-life in vivo” value under setting [9] is 4.8 ± 0.3 h; the “total protein half-life in vivo” value under setting [10] was found to be 9.08 ± 0.9 h; the “total protein half-life in vivo” value under setting [11] came out at 5.77 ± 0.26 h; the “total protein half-life in vivo” value under setting [12] was determined as 12.6 ± 0.46 h.

“MNPERSERIEIPVLPLRDVVVYPHMVIPLFVGREKSIRCLEAAMDHDKKIMLVAQKEASTDEPGVNDLFTVGTVASILQMLKLPDGTVKVLVEGLQRARISALSDNGEHFSAKAEYLESPTIDEREQEVLVRTAISQFEGYIKLNKKIPPEVLTSLNSIDDPARLADTIAAHMPLKLADKQSVLEMSDVNERLEYLMAMMESEIDLLQVEKRIRNRVKKQMEKSQREYYLNEQMKAIQKELGEMDDAPDENEALKRKIDAAKMPKEAKEKAEAELQKLKMMSPMSAEATVVRGYIDWMVQVPWNARSKVKKDLRQAQEILDTDHYGLERVKDRILEYLAVQSRVNKIKGPILCLVGPPGVGKTSLGQSIAKATGRKYVRMALGGVRDEAEIRGHRRTYIGSMPGKLIQKMAKVGVKNPLFLLDEIDKMSSDMRGDPASALLEVLDPEQNVAFSDHYLEVDYDLSDVMFVATSNSMNIPAPLLDRMEVIRLSGYTEDEKLNIAKRHLLPKQIERNALKKGELTVDDSAIIGIIRYYTREAGVRGLEREISKLCRKAVKQLLLDKSLKHIEINGDNLHDYLGVQRFDYGRADNENRVGQVTGLAWTEVGGDLLTIETACVPGKGKLTYTGSLGEVMQESIQAALTVVRARAEKLGINPDFYEKRDIHVHVPEGATPKDGPSAGIAMCTALVSCLTGNPVRADVAMTGEITLRGQVLPIGGLKEKLLAAHRGGIKTVLIPFENKRDLEEIPDNVIADLDIHPVKRIEEVLTLALQNEPSGMQVVTAK [P0A9M0]”: the “total protein half-life in vivo” value stood at 3.09 h under setting [1]; 6.54 ± 0.34 h under setting [2]; 4.728 ± 0.026 h under setting [3]; 4.49 ± 0.13 h under setting [5]; 2.889 ± 0.0043 h under setting [6]; 5.944 ± 0.036 h under setting [7]. Further, the “total protein half-life in vivo” value is, setting by setting: under setting [8], 11.2 ± 0.36 h; under setting [9], 4.74 ± 0.17 h; under setting [10], 6.68 ± 0.68 h; under setting [11], 5.58 ± 0.2 h; under setting [12], 10.7 ± 0.49 h.

“MSVMLQSLNNIRTLRAMAREFSIDVLEEMLEKFRVVTKERREEEEQQQRELAERQEKISTWLELMKADGINPEELLGNSSAAAPRAGKKRQPRPAKYKFTDVNGETKTWTGQGRTPKPIAQALAEGKSLDDFLI [P0ACG1]”: the “total protein half-life in vivo” value came out at 7.04 ± 1.3 h under setting [1]; 6.38 ± 0.2 h under setting [2]; 6.63 ± 0.19 h under setting [3]; 7.2 ± 0.27 h under setting [4]; 5.86 ± 0.72 h under setting [5]; 3 ± 0.032 h under setting [6]. Also, the “total protein half-life in vivo” value by setting is: under setting [7], 5.941 ± 0.033 h; under setting [8], 8.33 ± 0.14 h; under setting [9], 4.94 ± 0.73 h; under setting [10], 12 ± 4 h; under setting [11], 5.04 ± 1.5 h; under setting [12], 11 ± 0.95 h.

On to “MADEIDAMALYRAWQQLDNGSCAQIRRVSEPDELRDIPAFYRLVQPFGWENPRHQQALLRMVFCLSAGKNVIRHQDKKSEQTTGISLGRALANSGRINERRIFQLIRADRTADMVQLRRLLTHAEPVLDWPLMARMLTWWGKRERQQLLEDFVLTTNKNA”, for which the “total protein half-life in vivo” value under setting [1] was 5.62 ± 1.1 h.

Consider “MLVSKKPMVLVILDGYGYREEQQDNAIFSAKTPVMDALWANRPHTLIDASGLEVGLPDRQMGNSEVGHVNLGAGRIVYQDLTRLDVEIKDRAFFANPVLTGAVDKAKNAGKAVHIMGLLSAGGVHSHEDHIMAMVELAAERGAEKIYLHAFLDGRDTPPRSAESSLKKFEEKFAALGKGRVASIIGRYYAMDRDNRWDRVEKAYDLLTLAQGEFQADTAVAGLQAAYARDENDEFVKATVIRAEGQPDAAMEDGDALIFMNFRADRAREITRAFVNADFDGFARKKVVNVDFVMLTEYAADIKTAVAYPPASLVNTFGEWMAKNDKTQLRISETEKYAHVTFFFNGGVEESFKGEDRILINSPKVATYDLQPEMSSAELTEKLVAAIKSGKYDTIICNYPNGDMVGHTGVMEAAVKAVEALDHCVEEVAKAVESVGGQLLITADHGNAEQMRDPATGQAHTAHTNLPVPLIYVGDKNVKAVEGGKLSDIAPTMLSLMGMEIPQEMTGKPLFIVE”, for which the “total protein half-life in vivo” value under setting [1] came to 5.19 ± 0.06 h; the “total protein half-life in vivo” value under setting [2] came to 5.05 ± 0.79 h; the “total protein half-life in vivo” value under setting [3] turned out to be 5.19 ± 0.44 h; the “total protein half-life in vivo” value under setting [4] is 4.97 ± 0.22 h; the “total protein half-life in vivo” value under setting [5] was 4.458 ± 0.033 h; the “total protein half-life in vivo” value under setting [6] amounted to 2.85 ± 0.1 h. Moreover, the “total protein half-life in vivo” value is, setting by setting: under setting [7], 5.58 ± 0.34 h; under setting [8], 10 ± 1.6 h; under setting [9], 4.76 ± 0.1 h; under setting [10], 7.769 ± 0.048 h; under setting [11], 5.1 ± 0.24 h; under setting [12], 10.35 ± 0.034 h.

Consider “MELYLDTANVAEVERLARIFPIAGVTTNPSIIAASKESIWEVLPRLQKAIGDEGILFAQTMSRDAQGMVEEAKRLRDAIPGIVVKIPVTSEGLAAIKILKKEGITTLGTAVYSAAQGLLAALAGAKYVAPYVNRVDAQGGDGIRTVQELQTLLEMHAPESMVLAASFKTPRQALDCLLAGCESITLPLDVAQQMLNTPAVESAIEKFEHDWNAAFGTTHL”, for which the “total protein half-life in vivo” value stood at 4.61 ± 1.5 h under setting [1]; 3.3 h under setting [4]; 2.84 h under setting [5]; 2.91 ± 0.4 h under setting [6]; 3.9 ± 0.8 h under setting [7]; 9.6 ± 0.48 h under setting [8]. Also, the “total protein half-life in vivo” value is 5.37 h under setting [11] and 9.74 ± 0.17 h under setting [12].

With “MNIRRKNRLWIACAVLAGLALTIGLVLYALRSNIDLFYTPGEILYGKRETQQMPEVGQRLRVGGMVMPGSVQRDPNSLKVTFTIYDAEGSVDVSYEGILPDLFREGQGVVVQGELEKGNHILAKEVLAKHDENYTPPEVEKAMEANHRRPASVYKDPAS”, the “total protein half-life in vivo” value stood at 5.21 ± 0.82 h under setting [1]; 4.46 h under setting [2]; 4.36 ± 0.36 h under setting [3]; 4.62 ± 0.13 h under setting [4]; 4.65 ± 0.1 h under setting [5]; 2.91 ± 0.059 h under setting [6]. Further, the “total protein half-life in vivo” value reads like this: under setting [7], 6.09 ± 0.43 h; under setting [8], 8.92 ± 0.19 h; under setting [9], 4.31 ± 0.63 h; under setting [10], 9.42 ± 2.7 h; under setting [11], 4.67 h; under setting [12], 10.05 ± 0.046 h.
